Legend:
[1] = DHE staining, flow cytometry, HEK293; conditions: glycan lost; control: Skl (wild type)
[2] = GSH/GSSG-Glo luminescence assay; conditions: glycan lost; control: Skl (wild type)

Protein	other: antioxidant activity (lowering of intracellular O2-) [1]	other: antioxidant activity (raising of GSH/GSSG ratio) [2]
short-form Klotho (Skl): Skl3N (protein) parent chain: MLARAPPRRPPRLVLLRLLLLHLLLLALRARCLSAEPGQGAQTWARFARAPAPEAAGLLHDTFPDGFLWAVGSAAYQTEGGWRQHGKGASIWDTFTHHSGAAPSDSPIVVAPSGAPSPPLSSTGDVASDSYNNVYRDTEGLRELGVTHYRFSISWARVLPNGTAGTPNREGLRYYRRLLERLRELGVQPVVTLYHWDLPQRLQDTYGGWANRALADHFRDYAELCFRHFGGQVKYWITIDNPYVVAWHGYATGRLAPGVRGSSRLGYLVAHNLLLAHAKVWHLYNTSFRPTQGGRVSIALSSHWINPRRMTDYNIRECQKSLDFVLGWFAKPIFIDGDYPESMKNNLSSLLPDFTESEKRLIRGTADFFALSFGPTLSFQLLDPNMKFRQLESPNLRQLLSWIDLEYNHPPIFIVENGWFVSGTTKRDDAKYMYYLKKFIMETLKAIRLDGVDVIGYTAWSLMDGFEWHRGYSIRRGLFYVDFLSQDKELLPKSSALFYQKLIEDNGFPPLPENQPLEGTFPCDFAWGVVDNYVQVSPLTKPSVGLLLPH	decreases	abolishes
short-form Klotho (Skl): SklN285A (protein) parent chain: MLARAPPRRPPRLVLLRLLLLHLLLLALRARCLSAEPGQGAQTWARFARAPAPEAAGLLHDTFPDGFLWAVGSAAYQTEGGWRQHGKGASIWDTFTHHSGAAPSDSPIVVAPSGAPSPPLSSTGDVASDSYNNVYRDTEGLRELGVTHYRFSISWARVLPNGTAGTPNREGLRYYRRLLERLRELGVQPVVTLYHWDLPQRLQDTYGGWANRALADHFRDYAELCFRHFGGQVKYWITIDNPYVVAWHGYATGRLAPGVRGSSRLGYLVAHNLLLAHAKVWHLYNTSFRPTQGGRVSIALSSHWINPRRMTDYNIRECQKSLDFVLGWFAKPIFIDGDYPESMKNNLSSLLPDFTESEKRLIRGTADFFALSFGPTLSFQLLDPNMKFRQLESPNLRQLLSWIDLEYNHPPIFIVENGWFVSGTTKRDDAKYMYYLKKFIMETLKAIRLDGVDVIGYTAWSLMDGFEWHRGYSIRRGLFYVDFLSQDKELLPKSSALFYQKLIEDNGFPPLPENQPLEGTFPCDFAWGVVDNYVQVSPLTKPSVGLLLPH		abolishes
